The subject of data set [1] is HeLa Kyoto. Nature of the data set: solubility in G1/S (NP-40 vs SDS abundance) (log2 ratio); higher = more soluble. The note with it: cell cycle stage: G1/S.
Data set [2] relates to HeLa Kyoto. Nature of the data set: melting temperature (median over replicates), in situ; higher = more thermally stable.
For data set [3], the system named is HeLa Kyoto. Kind of data set: solubility change mitosis vs G1/S (difference of NP-40 vs SDS log2 ratios) (log2 ratio difference); higher = more soluble in mitosis.
Data set [4] relates to HeLa Kyoto. Nature of the data set: thermal stability score vs G1/S (z-score of summed log2 fold changes over temperatures); higher = more thermally stable than in G1/S.
The mark [5] stands for this setting: cell cycle stage: early G1 (4.5 h after nocodazole release).
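Wherever melting temperature (median over replicates), in situ is given: HeLa Kyoto cells synchronized by double thymidine or nocodazole block, proteins quantified by TMT10plex mass spectrometry, three independent biological replicates.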
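Wherever solubility change mitosis vs G1/S (difference of NP-40 vs SDS log2 ratios) is given: synchronized HeLa Kyoto cells (double thymidine block for G1/S, nocodazole release for mitosis), protein amounts in NP-40 versus SDS lysates quantified by mass spectrometry, three biological replicates.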
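Wherever solubility in G1/S (NP-40 vs SDS abundance) is given: HeLa Kyoto cells arrested at G1/S by double thymidine block, proteins quantified by TMT10plex mass spectrometry in mild NP-40 versus SDS extracts, three biological replicates.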
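Wherever thermal stability score vs G1/S (z-score of summed log2 fold changes over temperatures) is given: synchronized HeLa Kyoto cells, proteins quantified by TMT10plex mass spectrometry, three biological replicates, mitosis taken 0.5 h after nocodazole release, G1/S directly after double thymidine block.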

For the substance “MKKAEMGRFSISPDEDSSSYSSNSDFNYSYPTKQAALKSHYADVDPENQNFLLESNLGKKKYETEFHPGTTSFGMSVFNLSNAIVGSGILGLSYAMANTGIALFIILLTFVSIFSLYSVHLLLKTANEGGSLLYEQLGYKAFGLVGKLAASGSITMQNIGAMSSYLFIVKYELPLVIQALTNIEDKTGLWYLNGNYLVLLVSLVVILPLSLFRNLGYLGYTSGLSLLCMVFFLIVVICKKFQVPCPVEAALIINETINTTLTQPTALVPALSHNVTENDSCRPHYFIFNSQTVYAVPILIFSFVCHPAVLPIYEELKDRSRRRMMNVSKISFFAMFLMYLLAALFGYLTFYEHVESELLHTYSSILGTDILLLIVRLAVLMAVTLTVPVVIFPIRSSVTHLLCASKDFSWWRHSLITVSILAFTNLLVIFVPTIRDIFGFIGASAASMLIFILPSAFYIKLVKKEPMKSVQKIGALFFLLSGVLVMTGSMALIVLDWVHNAPGGGH [SLC38A2]”, the “solubility in G1/S (log2)” value in data set [1] worked out at 0.157. Also, the melting temperature in data set [2] (cell cycle stage: G1/S) is 57.5 °C; in data set [2] (cell cycle stage: mitosis), 57.6 °C. Moreover, the “solubility change mitosis (log2)” value in data set [3] is -0.301. Also, the thermal stability score in data set [4] (setting [5]) was -0.691; in data set [4] (cell cycle stage: mitosis), -0.748.
Take “MATSMAAASGRFESAKSIEERKEQTRNARAEVLRQAKANFEKEERRKELKRLRGEDTWMLPDVNERIEQFSQEHSVKKKKKKDKHSKKAKKEKKKKSKKQKYEKNNESSDSSSSSEDEWVEAVPSQTPDKEKAWKVKDEKSGKDDTQIIKRDEWMTVDFMSVKTVSSSSLKAEKETMRKIEQEKNQALEQSKLMERELNPYWKDGGTGLPPEDCSVSSITKVSVVEDGGLSWLRKSYLRMKEQAEKQSRNFEDIVAERYGSMEIFQSKLEDAEKAASTKEDYRRERWRKPTYSDKAQNCQESRESDLVKYGNSSRDRYATTDTAKNSNNEKFIGDEKDKRPGSLETCRRESNPRQNQEFSFGNLRAKFLRPSDDEELSFHSKGRKFEPLSSSSALVAQGSLCSGFRKPTKNSEERLTSWSRSDGRGDKKHSNQKPSETSTDEHQHVPEDPREKSQDEVLRDDPPKKEHLRDTKSTFAGSPERESIHILSVDEKNKLGAKIIKAEMMGNMELAEQLKVQLEKANKFKETITQIPKKSGVENEDQQEVILVRTDQSGRVWPVNTPGKSLESQGGRRKRQMVSTHEERERVRYFHDDDNLSLNDLVKNEKMGTAENQNKLFMRMASKFMGKTDGDYYTLDDMFVSKAAERERLGEEEENQRKKAIAEHRSLAAQMEKCLYCFDSSQFPKHLIVAIGVKVYLCLPNVRSLTEGHCLIVPLQHHRAATLLDEDIWEEIQMFRKSLVKMFEDKGLDCIFLETNMSMKKQYHMVYECIPLPKEVGDMAPIYFKKAIMESDEEWSMNKKLIDLSSKDIRKSVPRGLPYFSVDFGLHGGFAHVIEDQHKFPHYFGKEIIGGMLDIEPRLWRKGIRESFEDQRKKALQFAQWWKPYDFTKSKNY [CWF19L2]”: the “solubility in G1/S (log2)” value in data set [1] was -0.379. The melting temperature in data set [2] (cell cycle stage: G1/S) was found to be 49.4 °C; in data set [2] (cell cycle stage: mitosis) it was 49.2 °C. Also, in data set [3], the “solubility change mitosis (log2)” value turned out to be 0.121. The thermal stability score was found to be 0.398 in data set [4] (setting [5]) and 2.26 in data set [4] (cell cycle stage: mitosis).
For UNC119B, in data set [1], the “solubility in G1/S (log2)” value amounted to 0.268. Besides, the melting temperature was 50.6 °C in data set [2] (cell cycle stage: G1/S) and 50.3 °C in data set [2] (cell cycle stage: mitosis). Moreover, in data set [3], the “solubility change mitosis (log2)” value was -0.089. The figures for the thermal stability score in data set [4] (setting [5]) and in data set [4] (cell cycle stage: mitosis) were -0.908 and -0.273, respectively.
Regarding “MASVWQRLGFYASLLKRQLNGGPDVIKWERRVIPGCTRSIYSATGKWTKEYTLQTRKDVEKWWHQRIKEQASKISEADKSKPKFYVLSMFPYPSGKLHMGHVRVYTISDTIARFQKMRGMQVINPMGWDAFGLPAENAAVERNLHPQSWTQSNIKHMRKQLDRLGLCFSWDREITTCLPDYYKWTQYLFIKLYEAGLAYQKEALVNWDPVDQTVLANEQVDEHGCSWRSGAKVEQKYLRQWFIKTTAYAKAMQDALADLPEWYGIKGMQAHWIGDCVGCHLDFTLKVHGQATGEKLTAYTATPEAIYGTSHVAISPSHRLLHGHSSLKEALRMALVPGKDCLTPVMAVNMLTQQEVPVVILAKADLEGSLDSKIGIPSTSSEDTILAQTLGLAYSEVIETLPDGTERLSSSAEFTGMTRQDAFLALTQKARGKRVGGDVTSDKLKDWLISRQRYWGTPIPIVHCPVCGPTPVPLEDLPVTLPNIASFTGKGGPPLAMASEWVNCSCPRCKGAAKRETDTMDTFVDSAWYYFRYTDPHNPHSPFNTAVADYWMPVDLYIGGKEHAVMHLFYARFFSHFCHDQKMVKHREPFHKLLAQGLIKGQTFRLPSGQYLQREEVDLTGSVPVHAKTKEKLEVTWEKMSKSKHNGVDPEEVVEQYGIDTIRLYILFAAPPEKDILWDVKTDALPGVLRWQQRLWTLTTRFIEARASGKSPQPQLLSNKEKAEARKLWEYKNSVISQVTTHFTEDFSLNSAISQLMGLSNALSQASQSVILHSPEFEDALCALMVMAAPLAPHVTSEIWAGLALVPRKLCAHYTWDASVLLQAWPAVDPEFLQQPEVVQMAVLINNKACGKIPVPQQVARDQDKVHEFVLQSELGVRLLQGRSIKKSFLSPRTALINFLVQD [LARS2]”, in data set [1], the “solubility in G1/S (log2)” value was -0.045. In addition, the melting temperature came out at 49.7 °C in data set [2] (cell cycle stage: G1/S) and 49.9 °C in data set [2] (cell cycle stage: mitosis). In addition, the “solubility change mitosis (log2)” value in data set [3] is -0.0972. The figures for the thermal stability score in data set [4] (setting [5]) and in data set [4] (cell cycle stage: mitosis) were 0.0823 and 0.851, respectively.
Turning to “MWIPVVGLPRRLRLSALAGAGRFCILGSEAATRKHLPARNHCGLSDSSPQLWPEPDFRNPPRKASKASLDFKRYVTDRRLAETLAQIYLGKPSRPPHLLLECNPGPGILTQALLEAGAKVVALESDKTFIPHLESLGKNLDGKLRVIHCDFFKLDPRSGGVIKPPAMSSRGLFKNLGIEAVPWTADIPLKVVGMFPSRGEKRALWKLAYDLYSCTSIYKFGRIEVNMFIGEKEFQKLMADPGNPDLYHVLSVIWQLACEIKVLHMEPWSSFDIYTRKGPLENPKRRELLDQLQQKLYLIQMIPRQNLFTKNLTPMNYNIFFHLLKHCFGRRSATVIDHLRSLTPLDARDILMQIGKQEDEKVVNMHPQDFKTLFETIERSKDCAYKWLYDETLEDR [TFB2M]”, the “solubility in G1/S (log2)” value in data set [1] was found to be 0.194. For the same substance, the figures for the melting temperature in data set [2] (cell cycle stage: G1/S) and in data set [2] (cell cycle stage: mitosis) were 50.5 °C and 50.7 °C, respectively. For the same substance, the “solubility change mitosis (log2)” value in data set [3] is -0.038. Also, the thermal stability score in data set [4] (setting [5]) was 0.218; in data set [4] (cell cycle stage: mitosis), 1.
Regarding “MAQSRDGGNPFAEPSELDNPFQDPAVIQHRPSRQYATLDVYNPFETREPPPAYEPPAPAPLPPPSAPSLQPSRKLSPTEPKNYGSYSTQASAAAATAELLKKQEELNRKAEELDRRERELQHAALGGTATRQNNWPPLPSFCPVQPCFFQDISMEIPQEFQKTVSTMYYLWMCSTLALLLNFLACLASFCVETNNGAGFGLSILWVLLFTPCSFVCWYRPMYKAFRSDSSFNFFVFFFIFFVQDVLFVLQAIGIPGWGFSGWISALVVPKGNTAVSVLMLLVALLFTGIAVLGIVMLKRIHSLYRRTGASFQKAQQEFAAGVFSNPAVRTAAANAAAGAAENAFRAP [SCAMP3]”, in data set [1], the “solubility in G1/S (log2)” value amounted to 0.19. Also, the melting temperature in data set [2] (cell cycle stage: G1/S) was determined as 58.2 °C; in data set [2] (cell cycle stage: mitosis), 57.8 °C. Further, the “solubility change mitosis (log2)” value in data set [3] was -0.173. Besides, the thermal stability score was -1.12 in data set [4] (setting [5]) and 0.091 in data set [4] (cell cycle stage: mitosis).

The values above are taken from the supplement of paper PMC5998384.
